# Measured values: patent US20230104769A1 (MABWELL SHANGHAI BIOSCIENCE, published 2023)
# Residue numbers refer to the chain shown, from its start. Numbers in names are those of the source.
# B1: h317 variant antibody, heavy chain D33S (antibody, V domains shown)
# VH: EVQLVESGGGLVKPGGSLRLSCAASGFTFSSYSMSWVRQAPGKGLEWVATISGGGSYTYYPDSVKGRFTISRDNAKNSLYLQMNSLRAEDTAVYYCASPDSSGVAYWGQGTLVTVSS
# VL: DIVMTQSPLSLPVTPGEPASITCKASQDVETVVAWYLQKPGQSPRLLIYWASTRHTGVPDRFSGSGSGTDFTLKISRVEAEDVGVYYCQQYSRYPWTFGQGTKL
# notes: Variant of h317
# B2: h317 variant antibody, heavy chain D33S and G54S (antibody, V domains shown)
# VH: B1 VH with G54S
# VL: B1 VL
# notes: Variant of h317; also called 33S(CDR1) 54S(CDR2)
# B3: h317 variant antibody, heavy chain D33S and Y59A (antibody, V domains shown)
# VH: B1 VH with Y59A
# VL: B1 VL
# notes: Variant of h317; also called 33S(CDRH 59A(CDR2))
# B4: h317 variant antibody, heavy chain D33Y (antibody, V domains shown)
# VH: B1 VH with S33Y
# VL: B1 VL
# notes: Variant of h317
# B5: h317 variant antibody, heavy chain D100E (antibody, V domains shown)
# VH: B1 VH with S33D, D100E
# VL: B1 VL
# notes: Variant of h317
# B6: h317 variant antibody, heavy chain D100Y (antibody, V domains shown)
# VH: B1 VH with S33D, D100Y
# VL: B1 VL
# notes: Variant of h317
# B7: h317 variant antibody, heavy chain G53S (antibody, V domains shown)
# VH: B1 VH with S33D, G53S
# VL: B1 VL
# notes: Variant of h317
# B8: h317 variant antibody, heavy chain G53Y (antibody, V domains shown)
# VH: B1 VH with S33D, G53Y
# VL: B1 VL
# notes: Variant of h317
# B9: h317 variant antibody, heavy chain G54D (antibody, V domains shown)
# VH: B1 VH with S33D, G54D
# VL: B1 VL
# notes: Variant of h317
# B10: h317 variant antibody, heavy chain G54S (antibody, V domains shown)
# VH: B1 VH with S33D, G54S
# VL: B1 VL
# notes: Variant of h317
# B11: h317 variant antibody, heavy chain G54S and Y59A (antibody, V domains shown)
# VH: B1 VH with S33D, G54S, Y59A
# VL: B1 VL
# notes: Variant of h317; also called 54S(CDR2) 59A(CDR2)
# B12: h317 variant antibody, heavy chain G55S (antibody, V domains shown)
# VH: B1 VH with S33D, G55S
# VL: B1 VL
# notes: Variant of h317
# B13: h317 variant antibody, heavy chain S31D (antibody, V domains shown)
# VH: B1 VH with S31D, S33D
# VL: B1 VL
# notes: Variant of h317
# B14: h317 variant antibody, heavy chain S52K (antibody, V domains shown)
# VH: B1 VH with S33D, S52K
# VL: B1 VL
# notes: Variant of h317
# B15: h317 variant antibody, heavy chain S52W (antibody, V domains shown)
# VH: B1 VH with S33D, S52W
# VL: B1 VL
# notes: Variant of h317
# B16: h317 variant antibody, heavy chain S56G (antibody, V domains shown)
# VH: B1 VH with S33D, S56G
# VL: B1 VL
# notes: Variant of h317
# B17: h317 variant antibody, heavy chain S101A (antibody, V domains shown)
# VH: B1 VH with S33D, S101A
# VL: B1 VL
# notes: Variant of h317
# B18: h317 variant antibody, heavy chain Y32A (antibody, V domains shown)
# VH: B1 VH with Y32A, S33D
# VL: B1 VL
# notes: Variant of h317
# B19: h317 variant antibody, heavy chain Y32N (antibody, V domains shown)
# VH: B1 VH with Y32N, S33D
# VL: B1 VL
# notes: Variant of h317
# B20: h317 variant antibody, heavy chain Y57T (antibody, V domains shown)
# VH: B1 VH with S33D, Y57T
# VL: B1 VL
# notes: Variant of h317
# B21: h317 variant antibody, heavy chain Y59A (antibody, V domains shown)
# VH: B1 VH with S33D, Y59A
# VL: B1 VL
# notes: Variant of h317
# B22: h317 variant antibody, heavy chain Y59T (antibody, V domains shown)
# VH: B1 VH with S33D, Y59T
# VL: B1 VL
# notes: Variant of h317
# B23: h317 variant antibody, heavy chain Y106T (antibody, V domains shown)
# VH: B1 VH with S33D, Y106T
# VL: B1 VL
# notes: Variant of h317; also called YI06T
# B24: h317 variant antibody, light chain E30S (antibody, V domains shown)
# VH: B1 VH with S33D
# VL: B1 VL with E30S
# notes: Variant of h317
# B25: h317 variant antibody, light chain H55A (antibody, V domains shown)
# VH: B1 VH with S33D
# VL: B1 VL with H55A
# notes: Variant of h317
# B26: h317 variant antibody, light chain H55Q (antibody, V domains shown)
# VH: B1 VH with S33D
# VL: B1 VL with H55Q
# notes: Variant of h317
# B27: h317 variant antibody, light chain K24R (antibody, V domains shown)
# VH: B1 VH with S33D
# VL: B1 VL with K24R
# notes: Variant of h317
# B28: h317 variant antibody, light chain K24R and S92N (antibody, V domains shown)
# VH: B1 VH with S33D
# VL: B1 VL with K24R, S92N
# notes: Variant of h317; also called 24R(CDR1) 92N(CDR3)
# B29: h317 variant antibody, light chain K24R and T56S (antibody, V domains shown)
# VH: B1 VH with S33D
# VL: B1 VL with K24R, T56S
# notes: Variant of h317; also called 24R(CDR1) 56(2)
# B30: h317 variant antibody, light chain K24R and Y94F (antibody, V domains shown)
# VH: B1 VH with S33D
# VL: B1 VL with K24R, Y94F
# notes: Variant of h317; also called 24R(CDR1) 94F(CDR3)
# B31: h317 variant antibody, light chain K24R, T56S and S92N (antibody, V domains shown)
# VH: B1 VH with S33D
# VL: B1 VL with K24R, T56S, S92N
# notes: Variant of h317; also called 24R(CDR1) 56S(CDR2) 92N(CDR3)
# B32: h317 variant antibody, light chain K24R, T56S and S92N with heavy chain D33S and G54S (antibody, V domains shown)
# VH: B1 VH with G54S
# VL: B1 VL with K24R, T56S, S92N
# notes: Variant of h317; also called L- 24R(CDR1) 56S(CDR2) 92N(CDR3); H- 33S(CDR1) 54S(CDR2)
# B33: h317 variant antibody, light chain K24R, T56S and S92N with heavy chain G54S and Y59A (antibody, V domains shown)
# VH: B1 VH with S33D, G54S, Y59A
# VL: B1 VL with K24R, T56S, S92N
# notes: Variant of h317; also called L- 24R(CDR1) 56S(CDR2) 92N(CDR3); H- 54S(CDR2) 59A(CDR2)
# B34: h317 variant antibody, light chain R93N (antibody, V domains shown)
# VH: B1 VH with S33D
# VL: B1 VL with R93N
# notes: Variant of h317
# B35: h317 variant antibody, light chain R93S (antibody, V domains shown)
# VH: B1 VH with S33D
# VL: B1 VL with R93S
# notes: Variant of h317
# B36: h317 variant antibody, light chain S92D (antibody, V domains shown)
# VH: B1 VH with S33D
# VL: B1 VL with S92D
# notes: Variant of h317
# B37: h317 variant antibody, light chain S92N (antibody, V domains shown)
# VH: B1 VH with S33D
# VL: B1 VL with S92N
# notes: Variant of h317
# B38: h317 variant antibody, light chain T56S (antibody, V domains shown)
# VH: B1 VH with S33D
# VL: B1 VL with T56S
# notes: Variant of h317
# B39: h317 variant antibody, light chain T56S and S92N (antibody, V domains shown)
# VH: B1 VH with S33D
# VL: B1 VL with T56S, S92N
# notes: Variant of h317; also called 56S(CDR2) 92N(CDR3)
# B40: h317 variant antibody, light chain V32A (antibody, V domains shown)
# VH: B1 VH with S33D
# VL: B1 VL with V32A
# notes: Variant of h317
# B41: h317 variant antibody, light chain V32Y (antibody, V domains shown)
# VH: B1 VH with S33D
# VL: B1 VL with V32Y
# notes: Variant of h317
# B42: h317 variant antibody, light chain W50A (antibody, V domains shown)
# VH: B1 VH with S33D
# VL: B1 VL with W50A
# notes: Variant of h317
# B43: h317 variant antibody, light chain W50G (antibody, V domains shown)
# VH: B1 VH with S33D
# VL: B1 VL with W50G
# notes: Variant of h317
# B44: h317 variant antibody, light chain W96G (antibody, V domains shown)
# VH: B1 VH with S33D
# VL: B1 VL with W96G
# notes: Variant of h317
# B45: h317 variant antibody, light chain W96Y (antibody, V domains shown)
# VH: B1 VH with S33D
# VL: B1 VL with W96Y
# notes: Variant of h317
# B46: h317 variant antibody, light chain Y91A (antibody, V domains shown)
# VH: B1 VH with S33D
# VL: B1 VL with Y91A
# notes: Variant of h317
# B47: h317 variant antibody, light chain Y91F (antibody, V domains shown)
# VH: B1 VH with S33D
# VL: B1 VL with Y91F
# notes: Variant of h317
# Biological target: T1, recombinant human PD-1 protein (NCBI accession No.: NP_005009.2, 21aa-167aa) (human, UniProt Q15116 21-167)
# T1 construct: range 21-167; also called recombinant human PD-1 extracellular domain protein; PD-1-ECD
# T1 sequence (Q15116 21-167 limits assumed, form in doubt): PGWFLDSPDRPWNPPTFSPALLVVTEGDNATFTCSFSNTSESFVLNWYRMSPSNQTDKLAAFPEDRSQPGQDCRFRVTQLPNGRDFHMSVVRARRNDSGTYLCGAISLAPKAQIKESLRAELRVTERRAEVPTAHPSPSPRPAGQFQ
# Assay: BLI Octet QKe, antibody on the sensor, single 100 nM PD-1
# Description: Determination of the binding kinetics: the affinity of the antibody was determined with Octet QKe system from Fortebio using an assay of capturing biotin-labeled antibody with streptavidin. […] Both the binding and dissociating were conducted for 300 s.
# The comparison of affinity between the variant antibodies and the parent antibody was performed using Octet QKe system supplied by Fortebio.
row,Binder,Kd [nM]
1,B1,2.89
2,B2,3.12
3,B3,3.96
4,B4,236
5,B5,74.4
6,B6,8.23
7,B7,5.53
8,B8,10.3
9,B9,29.3
10,B10,1.32
11,B11,2.68
12,B12,9.09
13,B13,5.12
14,B14,27.2
15,B15,39.4
16,B16,148
17,B17,16.3
18,B18,6.83
19,B19,18.1
20,B20,61.2
21,B21,3.29
22,B22,18.9
23,B23,294
24,B24,14.2

row,Binder,Kd [nM]
1,B25,172
2,B26,14.2
3,B27,1.02
4,B28,4.17
5,B29,3.23
6,B30,5.32
7,B31,2.91
8,B32,3.38
9,B33,2.88
10,B34,36.4
11,B35,7.94
12,B36,7.52
13,B37,3.49
14,B38,3.02
15,B39,3.98
16,B40,6.21
17,B41,9.81
18,B42,12.3
19,B43,61.4
20,B44,15.3
21,B45,412
22,B46,51.2
23,B47,47.6
